Source: article PMC5722895
One block for each binder: values may come before it.

Experiments:
Details in all cases: remark: other sources report otherwise
[1] = target: T1, Trigger Factor (TF), full length, residues 1-432 (E. coli), P0A850; experiment: SEC-MALS; concentration series of full-length TF and full-length mutants alone, 26 °C, sample buffer (20 mM K-phosphate pH 6.5, 100 mM KCl, 0.5 mM EDTA); fit to a fast monomer-dimer equilibrium; dimer to monomers
T1 chain: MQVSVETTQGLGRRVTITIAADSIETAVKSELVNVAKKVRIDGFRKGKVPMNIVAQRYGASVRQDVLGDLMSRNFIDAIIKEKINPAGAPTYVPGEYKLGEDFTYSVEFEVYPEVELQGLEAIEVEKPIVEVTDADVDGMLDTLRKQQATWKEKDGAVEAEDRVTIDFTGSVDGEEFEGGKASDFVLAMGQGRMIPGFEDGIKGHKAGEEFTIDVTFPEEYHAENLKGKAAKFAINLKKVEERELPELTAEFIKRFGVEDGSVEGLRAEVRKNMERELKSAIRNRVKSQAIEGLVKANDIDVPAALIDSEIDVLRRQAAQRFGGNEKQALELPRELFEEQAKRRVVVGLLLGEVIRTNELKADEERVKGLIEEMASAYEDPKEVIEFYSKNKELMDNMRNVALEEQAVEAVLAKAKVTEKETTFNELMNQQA

[2] = target: T2, Trigger Factor (TF), full length, residues 1–432 (E. coli), P0A850; experiment: SEC-MALS; sample buffer (20 mM K-phosphate pH 6.5, 100 mM KCl, 0.5 mM EDTA); 6 °C for the individual domains; concentration series fitted to a fast monomer–dimer equilibrium; dimer to monomers
T2 chain: T1 chain

[3] = target: T2, Trigger Factor (TF), full length, …; experiment: real-time NMR spin-label exchange (intermolecular PRE); 35 °C; 100 µM [U-2H,15N] TF mixed with 100 μM OXYL-1-NHS-labeled TF in sample buffer; decay of the 15N-filtered signal fitted to the lifetime of the dimer
[4] = target: T2, Trigger Factor (TF), full length, …; experiment: SEC-MALS; as a2 but 500 mM KCl; dimer to monomers
[5] = target: T2, Trigger Factor (TF), full length, …; experiment: AUC; sedimentation equilibrium, 6 °C, 100 mM KCl (sample buffer: 20 mM K-phosphate pH 6.5, 100 mM KCl, 0.5 mM EDTA); 12 μM TF, 48 and 135 μM RBD–SBD; global fit to a monomer–dimer model; dimer to monomers
[6] = target: T2, Trigger Factor (TF), full length, …; experiment: SEC-MALS; as a2 but 250 mM KCl; dimer to monomers
[7] = target: T2, Trigger Factor (TF), full length, …; experiment: real-time NMR spin-label exchange (intermolecular PRE); 15 °C; 100 µM [U-2H,15N] TF mixed with 100 μM OXYL-1-NHS-labeled TF in sample buffer; decay of the 15N-filtered signal fitted to the lifetime of the dimer

Kd [1]: 1.1 µM
B1: Trigger Factor (TF), full length, residues 1-432, P0A850 1-432 (natural protein)
chain: T1 chain

Kd [2]: 1.7 µM
stoichiometry N [2]: 2
lifetime of the dimer [3]: 2.6 min
Kd [4]: 30 µM
Kd [5]: 3.3 µM
Kd [6]: 9 µM
lifetime of the dimer [7]: 15.8 min
B2: Trigger Factor (TF), full length, residues 1–432, P0A850 1-432 (natural protein)
chain: T1 chain
